In data set [1] the test system is HeLa Kyoto. In words: solubility in G1/S (NP-40 vs SDS abundance) (log2 ratio); higher = more soluble. To be noted: cell cycle stage: G1/S.
In data set [2] the test system is HeLa Kyoto. Description: solubility change mitosis vs G1/S (difference of NP-40 vs SDS log2 ratios) (log2 ratio difference); higher = more soluble in mitosis.
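For solubility change mitosis vs G1/S (difference of NP-40 vs SDS log2 ratios) in this document: synchronized HeLa Kyoto cells (double thymidine block for G1/S, nocodazole release for mitosis), protein amounts in NP-40 versus SDS lysates quantified by mass spectrometry, three biological replicates.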
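For solubility in G1/S (NP-40 vs SDS abundance) in this document: HeLa Kyoto cells arrested at G1/S by double thymidine block, proteins quantified by TMT10plex mass spectrometry in mild NP-40 versus SDS extracts, three biological replicates.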

As to “MNKNTSTVVSPSLLEKDPAFQMITIAKETGLGLKVLGGINRNEGPLVYIQEIIPGGDCYKDGRLKPGDQLVSVNKESMIGVSFEEAKSIITGAKLRLESAWEIAFIRQKSDNIQPENLSCTSLIEASGEYGPQASTLSLFSSPPEILIPKTSSTPKTNNDILSSCEIKTGYNKTVQIPITSENSTVGLSNTDVASAWTENYGLQEKISLNPSVRFKAEKLEMALNYLGIQPTKEQHQALRQQVQADSKGTVSFGDFVQVARNLFCLQLDEVNVGAHEISNILDSQLLPCDSSEADEMERLKCERDDALKEVNTLKEKLLESDKQRKQLTEELQNVKQEAKAVVEETRALRSRIHLAEAAQRQAHGMEMDYEEVIRLLEAKITELKAQLADYSDQNKESVQDLKKRIMVLDCQLRKSEMARKTFEASTEKLLHFVEAIQEVFSDNSTPLSNLSERRAVLASQTSLTPLGRNGRSIPATLALESKELVKSVRALLDMDCLPYGWEEAYTADGIKYFINHVTQTTSWIHPVMSVLNLSRSEENEEDCSRELPNQKS [STXBP4]”, in data set [1], the “solubility in G1/S (log2)” value turned out to be 0.308. Further, the “solubility change mitosis (log2)” value in data set [2] is -0.138.
Turning to “MNLQAQPKAQNKRKRCLFGGQEPAPKEQPPPLQPPQQSIRVKEEQYLGHEGPGGAVSTSQPVELPPPSSLALLNSVVYGPERTSAAMLSQQVASVKWPNSVMAPGRGPERGGGGGVSDSSWQQQPGQPPPHSTWNCHSLSLYSATKGSPHPGVGVPTYYNHPEALKREKAGGPQLDRYVRPMMPQKVQLEVGRPQAPLNSFHAAKKPPNQSLPLQPFQLAFGHQVNRQVFRQGPPPPNPVAAFPPQKQQQQQQPQQQQQQQQAALPQMPLFENFYSMPQQPSQQPQDFGLQPAGPLGQSHLAHHSMAPYPFPPNPDMNPELRKALLQDSAPQPALPQVQIPFPRRSRRLSKEGILPPSALDGAGTQPGQEATGNLFLHHWPLQQPPPGSLGQPHPEALGFPLELRESQLLPDGERLAPNGREREAPAMGSEEGMRAVSTGDCGQVLRGGVIQSTRRRRRASQEANLLTLAQKAVELASLQNAKDGSGSEEKRKSVLASTTKCGVEFSEPSLATKRAREDSGMVPLIIPVSVPVRTVDPTEAAQAGGLDEDGKGPEQNPAEHKPSVIVTRRRSTRIPGTDAQAQAEDMNVKLEGEPSVRKPKQRPRPEPLIIPTKAGTFIAPPVYSNITPYQSHLRSPVRLADHPSERSFELPPYTPPPILSPVREGSGLYFNAIISTSTIPAPPPITPKSAHRTLLRTNSAEVTPPVLSVMGEATPVSIEPRINVGSRFQAEIPLMRDRALAAADPHKADLVWQPWEDLESSREKQRQVEDLLTAACSSIFPGAGTNQELALHCLHESRGDILETLNKLLLKKPLRPHNHPLATYHYTGSDQWKMAERKLFNKGIAIYKKDFFLVQKLIQTKTVAQCVEFYYTYKKQVKIGRNGTLTFGDVDTSDEKSAQEEVEVDIKTSQKFPRVPLPRRESPSEERLEPKREVKEPRKEGEEEVPEIQEKEEQEEGRERSRRAAAVKATQTLQANESASDILILRSHESNAPGSAGGQASEKPREGTGKSRRALPFSEKKKKTETFSKTQNQENTFPCKKCGR [ELMSAN1]”, in data set [1], the “solubility in G1/S (log2)” value was -0.0645. Besides, in data set [2], the “solubility change mitosis (log2)” value worked out at 0.257.
For the sequence “MNRHLCVWLFRHPSLNGYLQCHIQLHSHQFRQIHLDTRLQVFRQNRNCILHLLSKNWSRRYCHQDTKMLWKHKALQKYMENLSKEYQTLEQCLQHIPVNEENRRSLNRRHAELAPLAAIYQEIQETEQAIEELESMCKSLNKQDEKQLQELALEERQTIDQKINMLYNELFQSLVPKEKYDKNDVILEVTAGRTTGGDICQQFTREIFDMYQNYSCYKHWQFELLNYTPADYGGLHHAAARISGDGVYKHLKYEGGIHRVQRIPEVGLSSRMQRIHTGTMSVIVLPQPDEVDVKLDPKDLRIDTFRAKGAGGQHVNKTDSAVRLVHIPTGLVVECQQERSQIKNKEIAFRVLRARLYQQIIEKDKRQQQSARKLQVGTRAQSERIRTYNFTQDRVSDHRIAYEVRDIKEFLCGGKGLDQLIQRLLQSADEEAIAELLDEHLKSAK [MTRF1]”, in data set [1], the “solubility in G1/S (log2)” value was 0.228. In addition, the “solubility change mitosis (log2)” value in data set [2] is -0.0209.
The matching figures for “MNSSSANITYASRKRRKPVQKTVKPIPAEGIKSNPSKRHRDRLNTELDRLASLLPFPQDVINKLDKLSVLRLSVSYLRAKSFFDVALKSSPTERNGGQDNCRAANFREGLNLQEGEFLLQALNGFVLVVTTDALVFYASSTIQDYLGFQQSDVIHQSVYELIHTEDRAEFQRQLHWALNPSQCTESGQGIEEATGLPQTVVCYNPDQIPPENSPLMERCFICRLRCLLDNSSGFLAMNFQGKLKYLHGQKKKGKDGSILPPQLALFAIATPLQPPSILEIRTKNFIFRTKHKLDFTPIGCDAKGRIVLGYTEAELCTRGSGYQFIHAADMLYCAESHIRMIKTGESGMIVFRLLTKNNRWTWVQSNARLLYKNGRPDYIIVTQRPLTDEEGTEHLRKRNTKLPFMFTTGEAVLYEATNPFPAIMDPLPLRTKNGTSGKDSATTSTLSKDSLNPSSLLAAMMQQDESIYLYPASSTSSTAPFENNFFNESMNECRNWQDNTAPMGNDTILKHEQIDQPQDVNSFAGGHPGLFQDSKNSDLYSIMKNLGIDFEDIRHMQNEKFFRNDFSGEVDFRDIDLTDEILTYVQDSLSKSPFIPSDYQQQQSLALNSSCMVQEHLHLEQQQQHHQKQVVVEPQQQLCQKMKHMQVNGMFENWNSNQFVPFNCPQQDPQQYNVFTDLHGISQEFPYKSEMDSMPYTQNFISCNQPVLPQHSKCTELDYPMGSFEPSPYPTTSSLEDFVTCLQLPENQKHGLNPQSAIITPQTCYAGAVSMYQCQPEPQHTHVGQMQYNPVLPGQQAFLNKFQNGVLNETYPAELNNINNTQTTTHLQPLHHPSEARPFPDLTSSGFL [AHR]”: -0.135 and -0.105.
The matching figures for “MNYPGRGSPRSPEHNGRGGGGGAWELGSDARPAFGGGVCCFEHLPGGDPDDGDVPLALLRGEPGLHLAPGTDDHNHHLALDPCLSDENYDFSSAESGSSLRYYSEGESGGGGSSLSLHPPQQPPLVPTNSGGGGATGGSPGERKRTRLGGPAARHRYEVVTELGPEEVRWFYKEDKKTWKPFIGYDSLRIELAFRTLLQTTGARPQGGDRDGDHVCSPTGPASSSGEDDDEDRACGFCQSTTGHEPEMVELVNIEPVCVRGGLYEVDVTQGECYPVYWNQADKIPVMRGQWFIDGTWQPLEEEESNLIEQEHLNCFRGQQMQENFDIEVSKSIDGKDAVHSFKLSRNHVDWHSVDEVYLYSDATTSKIARTVTQKLGFSKASSSGTRLHRGYVEEATLEDKPSQTTHIVFVVHGIGQKMDQGRIIKNTAMMREAARKIEERHFSNHATHVEFLPVEWRSKLTLDGDTVDSITPDKVRGLRDMLNSSAMDIMYYTSPLYRDELVKGLQQELNRLYSLFCSRNPDFEEKGGKVSIVSHSLGCVITYDIMTGWNPVRLYEQLLQKEEELPDERWMSYEERHLLDELYITKRRLKEIEERLHGLKASSMTQTPALKFKVENFFCMGSPLAVFLALRGIRPGNTGSQDHILPREICNRLLNIFHPTDPVAYRLEPLILKHYSNISPVQIHWYNTSNPLPYEHMKPSFLNPAKEPTSVSENEGISTIPSPVTSPVLSRRHYGESITNIGKASILGAASIGKGLGGMLFSRFGRSSTTQSSETSKDSMEDEKKPVASPSATTVGTQTLPHSSSGFLDSAYFRLQESFFNLPQLLFPENVMQNKDNALVELDHRIDFELREGLVESRYWSAVTSHTAYWSSLDVALFLLTFMYKHEHDDDAKPNLDPI [DDHD1]”: -0.175 and 0.134.
The like results for “MPALACLRRLCRHVSPQAVLFLLFIFCLFSVFISAYYLYGWKRGLEPSADAPEPDCGDPPPVAPSRLLPLKPVQAATPSRTDPLVLVFVESLYSQLGQEVVAILESSRFKYRTEIAPGKGDMPTLTDKGRGRFALIIYENILKYVNLDAWNRELLDKYCVAYGVGIIGFFKANENSLLSAQLKGFPLFLHSNLGLKDCSINPKSPLLYVTRPSEVEKGVLPGEDWTVFQSNHSTYEPVLLAKTRSSESIPHLGADAGLHAALHATVVQDLGLHDGIQRVLFGNNLNFWLHKLVFVDAVAFLTGKRLSLPLDRYILVDIDDIFVGKEGTRMKVEDVKALFDTQNELRAHIPNFTFNLGYSGKFFHTGTNAEDAGDDLLLSYVKEFWWFPHMWSHMQPHLFHNQSVLAEQMALNKKFAVEHGIPTDMGYAVAPHHSGVYPVHVQLYEAWKQVWSIRVTSTEEYPHLKPARYRRGFIHNGIMVLPRQTCGLFTHTIFYNEYPGGSSELDKIINGGELFLTVLLNPISIFMTHLSNYGNDRLGLYTFKHLVRFLHSWTNLRLQTLPPVQLAQKYFQIFSEEKDPLWQDPCEDKRHKDIWSKEKTCDRFPKLLIIGPQKTGTTALYLFLGMHPDLSSNYPSSETFEEIQFFNGHNYHKGIDWYMEFFPIPSNTTSDFYFEKSANYFDSEVAPRRAAALLPKAKVLTILINPADRAYSWYQHQRAHDDPVALKYTFHEVITAGSDASSKLRALQNRCLVPGWYATHIERWLSAYHANQILVLDGKLLRTEPAKVMDMVQKFLGVTNTIDYHKTLAFDPKKGFWCQLLEGGKTKCLGKSKGRKYPEMDLDSRAFLKDYYRDHNIELSKLLYKMGQTLPTWLREDLQNTR [NDST1]” were, in that order, -0.0442 and -0.0111.
In the case of “MPGVARLPLLLGLLLLPRPGRPLDLADYTYDLAEEDDSEPLNYKDPCKAAAFLGDIALDEEDLRAFQVQQAVDLRRHTARKSSIKAAVPGNTSTPSCQSTNGQPQRGACGRWRGRSRSRRAATSRPERVWPDGVIPFVIGGNFTGSQRAVFRQAMRHWEKHTCVTFLERTDEDSYIVFTYRPCGCCSYVGRRGGGPQAISIGKNCDKFGIVVHELGHVVGFWHEHTRPDRDRHVSIVRENIQPGQEYNFLKMEPQEVESLGETYDFDSIMHYARNTFSRGIFLDTIVPKYEVNGVKPPIGQRTRLSKGDIAQARKLYKCPACGETLQDSTGNFSSPEYPNGYSAHMHCVWRISVTPGEKIILNFTSLDLYRSRLCWYDYVEVRDGFWRKAPLRGRFCGSKLPEPIVSTDSRLWVEFRSSSNWVGKGFFAVYEAICGGDVKKDYGHIQSPNYPDDYRPSKVCIWRIQVSEGFHVGLTFQSFEIERHDSCAYDYLEVRDGHSESSTLIGRYCGYEKPDDIKSTSSRLWLKFVSDGSINKAGFAVNFFKEVDECSRPNRGGCEQRCLNTLGSYKCSCDPGYELAPDKRRCEAACGGFLTKLNGSITSPGWPKEYPPNKNCIWQLVAPTQYRISLQFDFFETEGNDVCKYDFVEVRSGLTADSKLHGKFCGSEKPEVITSQYNNMRVEFKSDNTVSKKGFKAHFFSDKDECSKDNGGCQQDCVNTFGSYECQCRSGFVLHDNKHDCKEAGCDHKVTSTSGTITSPNWPDKYPSKKECTWAISSTPGHRVKLTFMEMDIESQPECAYDHLEVFDGRDAKAPVLGRFCGSKKPEPVLATGSRMFLRFYSDNSVQRKGFQASHATECGGQVRADVKTKDLYSHAQFGDNNYPGGVDCEWVIVAEEGYGVELVFQTFEVEEETDCGYDYMELFDGYDSTAPRLGRYCGSGPPEEVYSAGDSVLVKFHSDDTITKKGFHLRYTSTKFQDTLHSRK [BMP1]”, in data set [1], the “solubility in G1/S (log2)” value was -0.299. Also, the “solubility change mitosis (log2)” value in data set [2] was -0.301.

For the origin of these results see the supplement of paper PMC5998384.
